# Molecular target: T1, OR7C1 (Homo sapiens, UniProt O76099, D296E/G302K/M297V/R299D/T295K/V126I)
# T1 construct: Improved functional expression of modified OR-genes containing the truncated, optimized C-terminus; expressed in transfected cells; host or cells: HEK293T stably expressing human RTP1S(V227I) and RTP2(L220R)
# T1 sequence (O76099 with tags, fused parts or gaps V126I/T295K/D296E/M297V/R299D/G302K): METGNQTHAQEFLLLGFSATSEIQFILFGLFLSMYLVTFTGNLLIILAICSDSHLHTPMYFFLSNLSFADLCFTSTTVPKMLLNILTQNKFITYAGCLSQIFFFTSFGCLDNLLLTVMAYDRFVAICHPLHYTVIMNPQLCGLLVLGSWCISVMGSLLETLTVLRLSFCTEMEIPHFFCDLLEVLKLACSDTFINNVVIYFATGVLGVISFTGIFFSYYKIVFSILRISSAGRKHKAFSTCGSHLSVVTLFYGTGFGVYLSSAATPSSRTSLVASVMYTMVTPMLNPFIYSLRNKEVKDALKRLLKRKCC
# Assay: CRE-luciferase assay, HEK293T cells expressing OR7C1 (wild-type / modified C-terminus)
# Assay type: cell-based
# Conditions: OR7C1 variant, 1 μM Ambermax
# From the text: To test for possible variants of the sequence […]CC (SEQ ID NO: 86) leading to similar improved functional expression, different point mutations were introduced into the first 16 amino acids of this sequence (corresponding to […], SEQ ID NO: 10) and the variants were fused after the TM7 with OR7C1. […] The test concentrations were selected to fall into the range of partial activity of the wild-type sequence.
row,% of the activation by the optimized sequence RNKEVKDALKRLLKRKCC [%],Substance
1,167.7,Arg Arg
2,139.9,Arg Gly
3,130.8,Arg Phe
4,83.9,Arg Pro
5,72.0,Arg Tyr
6,0.0,Gln Glu
7,1.6,His Asp
8,0.0,Ile Ala
9,3.5,Lys Ala
10,75.6,Pro Ala
11,142.3,Pro Arg
12,211.8,Pro Gln
13,119.1,SEQ ID NO: 87 (RNREVKDALKRLLKRKCC; source 1..18: note = C-terminal domain sequence)
14,81.3,SEQ ID NO: 92 (RNKEVKEALKRLLKRKCC; source 1..18: note = C-terminal domain sequence)
15,95.3,SEQ ID NO: 93 (RNKEVKNALKRLLKRKCC; source 1..18: note = C-terminal domain sequence)
16,176.6,SEQ ID NO: 94 (RNKEVKRALKRLLKRKCC; source 1..18: note = C-terminal domain sequence)
17,115.3,SEQ ID NO: 96 (RNKEVKAALKRLLKRKCC; source 1..18: note = C-terminal domain sequence)

# Continued, substance first:
row,Substance,% of the activation by the optimized sequence RNKEVKDALKRLLKRKCC [%]
1,Ala Ala,2.1
2,Ala Glu,2.1
3,Arg Lys,2.0
4,Cys Gly,142.3
5,Cys Phe,100.5
6,Glu Arg,85.0
7,Glu Lys,153.0
8,Gly Cys,126.8
9,Gly Gly,128.9
10,Gly Leu,91.4
11,His Pro,114.6
12,Phe Arg,181.7
13,Phe Phe,103.8
14,Pro Gly,111.9
15,Pro Pro,36.2
16,SEQ ID NO: 88 (RNKEIKDALKRLLKRKCC; source 1..18: note = C-terminal domain sequence),66.5
17,SEQ ID NO: 89 (RNKEMKDALKRLLKRKCC; source 1..18: note = C-terminal domain sequence),76.7
18,SEQ ID NO: 90 (RNKEVRDALKRLLKRKCC; source 1..18: note = C-terminal domain sequence),117.4
19,SEQ ID NO: 91 (RNKEVKKALKRLLKRKCC; source 1..18: note = C-terminal domain sequence),140.8
20,SEQ ID NO: 95 (RNKEVKVALKRLLKRKCC; source 1..18: note = C-terminal domain sequence),122.1

# Molecular target: T2, OR7D4 (Homo sapiens, UniProt Q8NG98, D296E/E302K/G299D)
# T2 construct: Improved functional expression of modified OR-genes containing the truncated, optimized C-terminus; expressed in transfected cells
# T2 sequence (Q8NG98 with tags, fused parts or gaps D296E/G299D/E302K): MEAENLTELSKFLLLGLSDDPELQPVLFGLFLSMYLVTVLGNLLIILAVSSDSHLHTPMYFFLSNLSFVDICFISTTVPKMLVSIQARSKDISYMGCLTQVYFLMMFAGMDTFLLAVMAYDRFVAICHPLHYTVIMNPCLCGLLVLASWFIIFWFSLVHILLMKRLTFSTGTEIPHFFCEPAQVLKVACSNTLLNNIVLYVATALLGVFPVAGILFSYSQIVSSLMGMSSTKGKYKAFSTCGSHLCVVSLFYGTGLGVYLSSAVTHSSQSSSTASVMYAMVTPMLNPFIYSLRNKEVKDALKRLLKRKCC
# Assay: CRE-luciferase assay, HEK cells expressing OR7D4 (wild-type / modified C-terminus)
# Assay type: cell-based
# Conditions: OR7D4 variant, 0.1 μM Androstenone
# From the text: Random permutations of the general C-terminal sequence RN[KR][EDQ][VMIL][KR]KA[LIV][KRH][KR][LI][LIF][KRG][KR][KR]CC (SEQ ID NO: 822) linked to OR7D4 were generated based on degenerate oligonucleotides for the C-terminal domain. For this experiment, the MfeI/XhoI fragment from pcDNA3.1(+)-mmLucy-FLAG-rho-OR7D4 containing the CMV promoter and the OR coding sequence was used to replace the EcoRI/SalI fragment of pRDVCCB-CMV-dCas9-VPH-2A-Blast (Cellecta, Inc., Mountain View, USA). Complementary degenerate oligonucleotides were then used to replace the coding region of the C-terminal domain of […] (between Bsu36I and NotI). Random clones were selected, sequenced and tested for a correct open reading frame. A total of 55 clones were obtained with the correct open reading frame of […] and a permutation of the general sequence RN[KR][EDQ][VMIL][KR]KA[LIV][KRH][KR][LI][LIF][KRG][KR][KR]CC (SEQ ID NO: 822) as the C-terminal domain. All the different clones were compared to the wild-type sequence by the functional assay in HEK cells with the ligand Androstenone tested in a dose-response test.
row,Substance,Fold induction luciferase
1,SEQ ID NO: 305 (RNKDLKKAVKKLFGRKCC; source 1..18: note = C-terminal domain sequence),1.63

# Same assay, conditions: OR7D4 variant, 1 μM Androstenone
row,Substance,Fold induction luciferase
1,SEQ ID NO: 305 (RNKDLKKAVKKLFGRKCC; source 1..18: note = C-terminal domain sequence),10.13

# Same assay, conditions: OR7D4 variant, Androstenone
EC2 (concentration for 2-fold luciferase induction) [µM],EC2 Fold-improvement vs. wild-type,Substance
0.008,225.85,SEQ ID NO: 290 (RNKDVKKALRRLFGKKCC; source 1..18: note = C-terminal domain sequence)
0.113,15.28,SEQ ID NO: 291 (RNKELKKAIKRLIRRKCC; source 1..18: note = C-terminal domain sequence)
0.018,94.88,SEQ ID NO: 292 (RNKDVRKAVKRLLKKRCC; source 1..18: note = C-terminal domain sequence)
0.003,525.05,SEQ ID NO: 296 (RNREVKKALRRLFGKKCC; source 1..18: note = C-terminal domain sequence)
0.005,337.39,SEQ ID NO: 297 (RNRDVRKALKRLLKRKCC; source 1..18: note = C-terminal domain sequence)
0.011,162.22,SEQ ID NO: 298 (RNRDMRKAIRKLFGRKCC; source 1..18: note = C-terminal domain sequence)
0.093,18.62,SEQ ID NO: 299 (RNRELKKAIRKLLKRKCC; source 1..18: note = C-terminal domain sequence)
0.013,128.57,SEQ ID NO: 301 (RNKEVKKAIRKLFGRRCC; source 1..18: note = C-terminal domain sequence)
0.014,126.99,SEQ ID NO: 302 (RNREVRKAVRKLFRRKCC; source 1..18: note = C-terminal domain sequence)
0.011,150.37,SEQ ID NO: 303 (RNRDMKKALKKLFRRRCC; source 1..18: note = C-terminal domain sequence)
0.017,103.17,SEQ ID NO: 306 (RNKDVRKAVRRLFGRRCC; source 1..18: note = C-terminal domain sequence)

# Continued, substance first:
Substance,EC2 (concentration for 2-fold luciferase induction) [µM],EC2 Fold-improvement vs. wild-type
SEQ ID NO: 293 (RNKELRKAIRRLLRRRCC; source 1..18: note = C-terminal domain sequence),0.068,25.22
SEQ ID NO: 294 (RNRDIRKALRKLFKKKCC; source 1..18: note = C-terminal domain sequence),0.008,224.95
SEQ ID NO: 295 (RNRELKKALRRLLRRRCC; source 1..18: note = C-terminal domain sequence),0.033,51.89
SEQ ID NO: 300 (RNRDIRKAVKKLFGKKCC; source 1..18: note = C-terminal domain sequence),0.020,87.76
SEQ ID NO: 304 (RNRDVRKALKRLLGRRCC; source 1..18: note = C-terminal domain sequence),0.006,292.59
SEQ ID NO: 305 (RNKDLKKAVKKLFGRKCC; source 1..18: note = C-terminal domain sequence),0.131,13.15

# — patent US20260210939A1, “MODIFIED OLFACTORY RECEPTORS” (GIVAUDAN SA, priority 2022, published 2026)
